PMC9639781

Biological target: ATP synthase (endogenous, mouse cardiomyocytes) (mouse (endogenous in mouse neonatal cardiomyocytes)) (UniProt P56480)
Test: native gel or EMSA

stoichiometry N: 2
Substance: ATP synthase (endogenous, mouse cardiomyocytes) (from UniProt P56480 47-529; Q9DCX2 1-161; Q9DB20 24-213; Q9CQQ7 43-256) (complex)
